In IntAct's records for PubMed 10846174:

B1: Apoptosis regulator ced-9 (Caenorhabditis elegans), P41958 (parent)
chain: MTRCTADNSLTNPAYRRRTMATGEMKEFLGIKGTEPTDFGINSDAQDLPSPSRQASTRRMSIGESIDGKINDWEEPRLDIEGFVVDYFTHRIRQNGMEWFGAPGLPCGVQPEHEMMRVMGTIFEKKHAENFETFCEQLLAVPRISFSLYQDVVRTVGNAQTDQCPMSYGRLIGLISFGGFVAAKMMESVELQGQVRNLFVYTSLFIKTRIRNNWKEHNRSWDDFMTLGKQMKEDYERAEAEKVGRRKQNRRWSMIGAGVTAGAIGIVGVVVCGRMMFSLK
partner: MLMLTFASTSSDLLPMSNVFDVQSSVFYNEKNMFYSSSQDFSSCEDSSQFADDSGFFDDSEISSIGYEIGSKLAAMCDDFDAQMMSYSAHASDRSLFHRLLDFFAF
B2: Apoptosis regulator ced-9 (Caenorhabditis elegans), P41958 (parent)
chain: B1 chain
partner: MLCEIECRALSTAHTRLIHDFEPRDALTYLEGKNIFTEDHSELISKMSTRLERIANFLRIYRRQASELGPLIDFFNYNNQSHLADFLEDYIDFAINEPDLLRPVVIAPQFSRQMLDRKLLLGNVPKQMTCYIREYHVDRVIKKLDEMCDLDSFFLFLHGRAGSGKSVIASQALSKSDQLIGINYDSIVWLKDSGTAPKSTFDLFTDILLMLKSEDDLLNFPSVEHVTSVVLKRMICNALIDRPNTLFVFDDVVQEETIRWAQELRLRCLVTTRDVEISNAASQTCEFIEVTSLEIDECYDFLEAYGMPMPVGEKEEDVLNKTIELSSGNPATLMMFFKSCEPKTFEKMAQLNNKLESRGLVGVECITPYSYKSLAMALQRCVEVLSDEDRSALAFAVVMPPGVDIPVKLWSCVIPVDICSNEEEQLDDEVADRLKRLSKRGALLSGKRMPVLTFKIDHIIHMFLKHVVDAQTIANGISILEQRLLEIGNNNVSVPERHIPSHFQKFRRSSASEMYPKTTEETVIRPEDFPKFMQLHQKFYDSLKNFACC

Variants of: B1
Settings: with egl1_caeel egl-1, O61667

| Variant | effect of a mutation on the interaction |
| --- | --- |
| G169E | with no effect |

Variants of: B1
Settings: with egl1_caeel egl-1, O61667
Remark: another data set of the same source

| Variant | effect of a mutation on the interaction |
| --- | --- |
| G169E | decreasing interaction strength |

Variants of: B2
Settings: with ced4_caeel ced-4, P30429

| Variant | effect of a mutation on the interaction |
| --- | --- |
| G169E | with no effect |
